Legend:
[1] = target: T cell receptor of Ova-specific CD8+ T cells (OT-I), on OT-I cells (mouse); test: flow cytometry; His-tagged protein pre-mixed with PE-labeled α-His mAb, incubated with OT-I cells at 37° C. for 5 hours
[2] = target: T cell receptor of Ova-specific CD8+ T cells (OT-I), on OT-I cells (mouse); test: cell-based or functional assay

Substance “Kb(Ova)/ANXA5 carrying a His tag (peptide-MHC)” has a mean fluorescence shift relative to the unstained control [1] of 100 fold, a percent of OT-I cells pMHC+ (PE fluorescence) [1] of 98% and a TCR Vα2 expression downregulated, percent of OT-I cells, compared to the α-His/PE control (flow cytometry) [2] of 90%.
